Patent US20260167728A1 (published 2026)
Where a chain is given by its changes, count along the chain named.

B1: AC3841 (CD3.337) (scFv, V domains shown)
VH: EVQLVESGGGIVQPGGSLRLSCAASGFTFNTYAMNWVRQAPGKGLEWVGRIRTKTNDYATYYADSVKGRFTISRDDSKNTLYLQMNSLKTEDTAVYYCVRHENFGNSYVSWFAHWGQGTLVTVSS
VL: ELVVTQEPSLTVSPGGTVTLTCRSSNGAVTSSNYANWVQQKPGQAPRGLIGGTNKRAPGTPARFSGSLLGGKAALTLSGVQPEDEAVYYCALWYPNLWVFGGGTKLTVL
notes: Pool 3 format (remarks)
B2: AC3867 (CD3.363) (scFv, V domains shown)
VH: B1 VH with N30S, L81A
VL: B1 VL with G70E
notes: Pool 3 format (remarks)
B3: AC3844 (CD3.340) (scFv, V domains shown)
VH: B1 VH
VL: B1 VL with L69N
notes: Pool 3 format (remarks)
B4: AC3826 (CD3.322) (scFv, V domains shown)
VH: B1 VH with D57N, L81V
VL: B1 VL with L69N
notes: Pool 3 format (remarks)
B5: AC3882 (CD3.378) (scFv, V domains shown)
VH: B1 VH with N30S, T55R, D57N, Y62D, L81V
VL: B1 VL
notes: Pool 3 format (remarks)
B6: AC3857 (CD3.353) (scFv, V domains shown)
VH: B1 VH with N30S, D57N, L81V
VL: B1 VL with A74G
notes: Pool 3 format (remarks)
B7: AC3849 (CD3.345) (scFv, V domains shown)
VH: B1 VH
VL: B1 VL with G70E
notes: Pool 3 format (remarks)
B8: AC3821 (CD3.317) (scFv, V domains shown)
VH: B1 VH with N30S, T55R
VL: B1 VL with A74G
notes: Pool 3 format (remarks)
B9: AC3843 (CD3.339) (scFv, V domains shown)
VH: B1 VH
VL: B1 VL with L68G
notes: Pool 3 format (remarks)
B10: AC3824 (CD3.320) (scFv, V domains shown)
VH: B1 VH with D57N, L81V
VL: B1 VL with L68A
notes: Pool 3 format (remarks)
B11: AC3817 (CD3.313) (scFv, V domains shown)
VH: B1 VH with N30S, T55R
VL: B1 VL with L69N
notes: Pool 3 format (remarks)
B12: AC3804 (CD3.300) (scFv, V domains shown)
VH: B1 VH with N30S, T55R, D57N, L81V
VL: B1 VL with G70E
notes: Pool 3 format (remarks)
B13: AC3834 (CD3.330) (scFv, V domains shown)
VH: B1 VH with L81A
VL: B1 VL with L68G
notes: Pool 3 format (remarks)
B14: AC3828 (CD3.324) (scFv, V domains shown)
VH: B1 VH with D57N, L81V
VL: B1 VL with L69G
notes: Pool 3 format (remarks)
B15: AC3660 (CD3.229) (bispecific antibody, V domains shown)
VH: B1 VH with D57N, L81V
VL: B1 VL
notes: Pool 2 format (remarks)
B16: AC3819 (CD3.315) (scFv, V domains shown)
VH: B1 VH with N30S, T55R
VL: B1 VL with L69G
notes: Pool 3 format (remarks)
B17: AC3884 (CD3.380) (scFv, V domains shown)
VH: B1 VH with N30S, T55R, D57N, A59T, L81V
VL: B1 VL
notes: Pool 3 format (remarks)
B18: AC3835 (CD3.331) (scFv, V domains shown)
VH: B1 VH with L81A
VL: B1 VL with L69N
notes: Pool 3 format (remarks)
B19: AC3848 (CD3.344) (scFv, V domains shown)
VH: B1 VH
VL: B1 VL with A74G
notes: Pool 3 format (remarks)
B20: AC3869 (CD3.365) (scFv, V domains shown)
VH: B1 VH with N30S
VL: B1 VL with L68A
notes: Pool 3 format (remarks)
B21: AC3837 (CD3.333) (scFv, V domains shown)
VH: B1 VH with L81A
VL: B1 VL with L69G
notes: Pool 3 format (remarks)
B22: AC3810 (CD3.306) (scFv, V domains shown)
VH: B1 VH with N30S, T55R, L81A
VL: B1 VL with L69G
notes: Pool 3 format (remarks)
B23: AC3846 (CD3.342) (scFv, V domains shown)
VH: B1 VH
VL: B1 VL with L69G
notes: Pool 3 format (remarks)
B24: AC3812 (CD3.308) (scFv, V domains shown)
VH: B1 VH with N30S, T55R, L81A
VL: B1 VL with A74G
notes: Pool 3 format (remarks)
B25: AC3839 (CD3.335) (scFv, V domains shown)
VH: B1 VH with L81A
VL: B1 VL with A74G
notes: Pool 3 format (remarks)
B26: AC3883 (CD3.379) (scFv, V domains shown)
VH: B1 VH with N30S, T55R, D57N, Y62W, L81V
VL: B1 VL
notes: Pool 3 format (remarks)
B27: AC3847 (CD3.343) (scFv, V domains shown)
VH: B1 VH
VL: B1 VL with L69D
notes: Pool 3 format (remarks)
B28: AC3830 (CD3.326) (scFv, V domains shown)
VH: B1 VH with D57N, L81V
VL: B1 VL with A74G
notes: Pool 3 format (remarks)
B29: AC3840 (CD3.336) (scFv, V domains shown)
VH: B1 VH with L81A
VL: B1 VL with G70E
notes: Pool 3 format (remarks)
B30: AC3815 (CD3.311) (scFv, V domains shown)
VH: B1 VH with N30S, T55R
VL: B1 VL with L68A
notes: Pool 3 format (remarks)
B31: AC3829 (CD3.325) (scFv, V domains shown)
VH: B1 VH with D57N, L81V
VL: B1 VL with L69D
notes: Pool 3 format (remarks)
B32: AC3842 (CD3.338) (scFv, V domains shown)
VH: B1 VH
VL: B1 VL with L68A
notes: Pool 3 format (remarks)
B33: AC3880 (CD3.376) (scFv, V domains shown)
VH: B1 VH with N30S, T55P, D57N, L81V
VL: B1 VL
notes: Pool 3 format (remarks)
B34: AC3845 (CD3.341) (scFv, V domains shown)
VH: B1 VH
VL: B1 VL with L69E
notes: Pool 3 format (remarks)
B35: AC3807 (CD3.303) (scFv, V domains shown)
VH: B1 VH with N30S, T55R, L81A
VL: B1 VL with L68G
notes: Pool 3 format (remarks)
B36: AC3877 (CD3.373) (scFv, V domains shown)
VH: B1 VH with N30S, W47D, T55R, D57N, L81V
VL: B1 VL
notes: Pool 3 format (remarks)
B37: AC3838 (CD3.334) (scFv, V domains shown)
VH: B1 VH with L81A
VL: B1 VL with L69D
notes: Pool 3 format (remarks)
B38: AC3808 (CD3.304) (scFv, V domains shown)
VH: B1 VH with N30S, T55R, L81A
VL: B1 VL with L69N
notes: Pool 3 format (remarks)
B39: AC3825 (CD3.321) (scFv, V domains shown)
VH: B1 VH with D57N, L81V
VL: B1 VL with L68G
notes: Pool 3 format (remarks)
B40: AC3820 (CD3.316) (scFv, V domains shown)
VH: B1 VH with N30S, T55R
VL: B1 VL with L69D
notes: Pool 3 format (remarks)
B41: AC3836 (CD3.332) (scFv, V domains shown)
VH: B1 VH with L81A
VL: B1 VL with L69E
notes: Pool 3 format (remarks)
B42: AC3818 (CD3.314) (scFv, V domains shown)
VH: B1 VH with N30S, T55R
VL: B1 VL with L69E
notes: Pool 3 format (remarks)
B43: AC3806 (CD3.302) (scFv, V domains shown)
VH: B1 VH with N30S, T55R, L81A
VL: B1 VL with L68A
notes: Pool 3 format (remarks)
B44: AC3814 (CD3.310) (scFv, V domains shown)
VH: B1 VH with N30S, T55R
VL: B1 VL
notes: Pool 3 format (remarks)
B45: AC3659 (CD3.228) (bispecific antibody, V domains shown)
VH: B1 VH with N30S, T55R, D57N, L81V
VL: B1 VL
notes: Pool 2 format (remarks)
B46: AC3816 (CD3.312) (scFv, V domains shown)
VH: B1 VH with N30S, T55R
VL: B1 VL with L68G
notes: Pool 3 format (remarks)
B47: AC3803 (CD3.299) (scFv, V domains shown)
VH: B1 VH with N30S, T55R, D57N, L81V
VL: B1 VL with A74G
notes: Pool 3 format (remarks)
B48: AC3878 (CD3.374) (scFv, V domains shown)
VH: B1 VH with N30S, V48G, T55R, D57N, L81V
VL: B1 VL
notes: Pool 3 format (remarks)

Biological target: T1, huCD3e-mFc (human, UniProt P07766 23-126)
T1 construct: not shown: mFc, not described
Assay: Pool 3 screen

T1 sequence (P07766 23-126): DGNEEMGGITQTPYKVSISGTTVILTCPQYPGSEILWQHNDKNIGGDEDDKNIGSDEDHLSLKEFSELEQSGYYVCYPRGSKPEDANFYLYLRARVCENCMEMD

Row | Kd [nM] | Binder
1 | 12.2 | B1
2 | 62.7 | B2
3 | 10.6 | B3
4 | 7 | B4
5 | 3.74 | B5
6 | 12.3 | B6
7 | 18 | B7
8 | 4.1 | B8
9 | 15.4 | B9
10 | 10.9 | B10
11 | 3.86 | B11
12 | 36.6 | B12
13 | 23.4 | B13
14 | 7.21 | B14
15 | 13.6 | B15
16 | 3.4 | B16
17 | 4.54 | B17
18 | 35.7 | B18
19 | 14.2 | B19
20 | 18.8 | B20
21 | 17.9 | B21
22 | 5.09 | B22
23 | 9.99 | B23

Row | Kd [nM] | Binder
24 | 5.56 | B24
25 | 24.5 | B25
26 | 4.19 | B26
27 | 14 | B27
28 | 6.65 | B28
29 | 32.6 | B29
30 | 4.53 | B30
31 | 10.1 | B31
32 | 17 | B32
33 | 12.9 | B33
34 | 15.8 | B34
35 | 6.08 | B35
36 | 8.92 | B36
37 | 30.7 | B37
38 | 4.31 | B38
39 | 10 | B39
40 | 3.99 | B40
41 | 30.6 | B41
42 | 4.02 | B42
43 | 5.09 | B43
44 | 4.1 | B44
45 | 5.14 | B45
46 | 4.12 | B46

Biological target: T1, huCD3e-mFc
Assay: Pool 3 screen, R2

Row | Kd [nM] | Binder
47 | 7.96 | B47
48 | 17 | B48
